# According to patent US6514938B1, “Copolymer 1 related polypeptides for use as molecular weight markers and for therapeutic use” (Yeda Research and Development Co. Ltd. at the Weizmann …, priority 1998, dated 2003):
# B1: AKKYAKKEKAYAKAKKAEAKAAKKAKAEAKKYAKAAKAEKKEYAAAEAKYKAEAAKAAAKEAAYEA (peptide)
# chain: AKKYAKKEKAYAKAKKAEAKAAKKAKAEAKKYAKAAKAEKKEYAAAEAKYKAEAAKAAAKEAAYEA
# B2: AKKYAKKAEKAYAKKAKAAKEKKAYAKKEAKAYKAAEAKKKAKAEAKKYAKEAAKAKKEAYKAEAKKYAKAAKAEKKEYAAAEAKKAEAAKAYKAEAAKAAAKEAAYEA (peptide)
# chain: AKKYAKKAEKAYAKKAKAAKEKKAYAKKEAKAYKAAEAKKKAKAEAKKYAKEAAKAKKEAYKAEAKKYAKAAKAEKKEYAAAEAKKAEAAKAYKAEAAKAAAKEAAYEA
# notes: reversed-phase fraction 2 used for calibration
# B3: AKKYAKKEKAYAKKAEKAAKKAEAKAYKAAEAKKKAKAEAKKYAKAAKAEKKEYAAAEAKYKAEAAKAAAKEAAYEA (peptide)
# chain: AKKYAKKEKAYAKKAEKAAKKAEAKAYKAAEAKKKAKAEAKKYAKAAKAEKKEYAAAEAKYKAEAAKAAAKEAAYEA
# B4: AKKYAKKEKAYAKKAEKAAKKAEAKAYKAAEAKKKAKAEAKKYAKAAKAEKKEYAAAEAKYKAEAAKKAYKAEAAKAAAKEAAYEA (peptide)
# chain: AKKYAKKEKAYAKKAEKAAKKAEAKAYKAAEAKKKAKAEAKKYAKAAKAEKKEYAAAEAKYKAEAAKKAYKAEAAKAAAKEAAYEA
# Key:
# [1] = test system: experimental allergic encephalomyelitis (EAE) in (SJL/JxBALB/c)FI mice; assay: Blocking of experimental allergic encephalomyelitis by injection with complete adjuvant; format: in vivo, mouse; conditions: for Incidence of EAE: antigen included in the encephalitogenic inoculum, animals with EAE/animals in group; for % Blocking: blocking of EAE versus control without antigen; for Mean Score: disease score 0 (healthy) to 5 (dead); for Mean Onset: animals not protected, onset = day of score of at least 1
# Text: Blocking of Experimental Allergic Encephalomyelitis—To test the physiological activity of TV-markers, protection from experimental allergic encephalomyelitis (EAE) was investigated in mice. Injection of Copolymer 1 in complete Freund's adjuvant together with the encephalitogen can block EAE essentially as described in Aharoni et al., 17 Eur. J. Immunol. 23 (1993). Other researchers have observed that the therapeutic effect of Copolymer 1 in multiple sclerosis patients is also associated with the induction of TH2 cells. Lahat et al., 244 J. Neurol. 129 (1997). In this example, EAE is blocked by different polypeptides of the present invention.
# Pertussis toxin (0.25 ml, 250 ng, Sigma) is injected intravenously, immediately after and 48 hr later. […] 2156 (1979).
# EAE blocking by injection with complete adjuvant—Each antigen being tested was included in the encephalitogenic inoculum. […] Also shown is the mean onset of EAE in animals which were not protected. Disease intensity is scored daily in mice with a score of zero (0=healthy) to five (5=dead).
# [2] = test system: anti-Cop-1 (3-1-45) monoclonal antibody; assay: RIA: binding of anti-Cop 1 monoclonal antibody to coated antigen; conditions: for % Cop 1 binding: relative to Cop 1 reference standard 03494; for Binding of mAb cpm: wells coated with 2 μg/ml antigen, 125I-goat anti-mouse IgG bound
# [3] = test system: anti-Cop-1 (5-7-2) monoclonal antibody; assay: as above; conditions: for % Cop 1 binding: relative to Cop 1 reference standard 03494; for Binding of mAb cpm: wells coated with 2 μg/ml antigen, 125I-goat anti-mouse IgG bound
# [4] = test system: SC-14 Cop 1 specific T cell clone; assay: Proliferation of Cop 1 specific T cell line (3H-thymidine uptake); conditions: for 3H-Thymidine incorporation (% Cop 1): 10 μg antigen, relative to 03494; for 3H-Thymidine incorporation cpm: cultured with 10 μg antigen
# [5] = test system: anti-Cop-1 (3-3-9) monoclonal antibody; assay: RIA: binding of anti-Cop 1 monoclonal antibody to coated antigen; conditions: for % Cop 1 binding: relative to Cop 1 reference standard 03494; for Binding of mAb cpm: wells coated with 2 μg/ml antigen, 125I-goat anti-mouse IgG bound
# L-22-1 T cell clone = assay: Proliferation of Cop 1 specific T cell line (3H-thymidine uptake); conditions: for 3H-Thymidine incorporation (% Cop 1): 10 μg antigen, relative to 03494; for 3H-Thymidine incorporation cpm: cultured with 10 μg antigen
# [6] = test system: SC-103 Cop 1 specific T cell clone; assay: as above; conditions: for 3H-Thymidine incorporation (% Cop 1): 10 μg antigen, relative to 03494; for 3H-Thymidine incorporation cpm: cultured with 10 μg antigen
# [7] = test system: BALB/c-Ts-Cop-1 T cell line; assay: as above; conditions: for 3H-Thymidine incorporation (% Cop 1): 10 μg antigen, relative to 03494; for 3H-Thymidine incorporation cpm: cultured with 10 μg antigen
molecule,measurement,setting,value
AKKYAKKAKAEKAKKAYKAAEAKKAAKYEKAAAEKAAAKEAAYEA [TV-45],Incidence of EAE,[1],0/10
same,% Blocking,[1],100%
same,Mean Score,[1],0
AKKYAKKEKAAKKAYKKEAKAKAAEAAAKEAAYEA [TV-35],% Cop 1 binding,[2],(0) %
same,Binding of mAb cpm,[2],343 cpm
same,% Cop 1 binding,[3],(1) %
same,Binding of mAb cpm,[3],657 cpm
same,3H-Thymidine incorporation (% Cop 1),[4],(0) %
same,3H-Thymidine incorporation cpm,[4],884 cpm
same,% Cop 1 binding,[5],(0) %
same,Binding of mAb cpm,[5],1176 cpm
same,3H-Thymidine incorporation (% Cop 1),L-22-1 T cell clone,(0) %
same,3H-Thymidine incorporation cpm,L-22-1 T cell clone,225 cpm
same,3H-Thymidine incorporation (% Cop 1),[6],(0) %
same,3H-Thymidine incorporation cpm,[6],438 cpm
same,3H-Thymidine incorporation (% Cop 1),[7],(28) %
same,3H-Thymidine incorporation cpm,[7],9465 cpm
AKKYAKKEKAYAKKAEKAAKKAEAKAYKAAEAKKKAEAKYKAEAAKAAAKEAAYEA [TV-56],% Cop 1 binding,[2],(6) %
same,Binding of mAb cpm,[2],1581 cpm
same,% Cop 1 binding,[3],(91) %
same,Binding of mAb cpm,[3],9584 cpm
same,3H-Thymidine incorporation (% Cop 1),[4],(117) %
same,3H-Thymidine incorporation cpm,[4],3495 cpm
same,% Cop 1 binding,[5],(2) %
same,Binding of mAb cpm,[5],1614 cpm
same,3H-Thymidine incorporation (% Cop 1),L-22-1 T cell clone,(0) %
same,3H-Thymidine incorporation cpm,L-22-1 T cell clone,232 cpm
same,3H-Thymidine incorporation (% Cop 1),[6],(0) %
same,3H-Thymidine incorporation cpm,[6],237 cpm
same,3H-Thymidine incorporation (% Cop 1),[7],(59) %
same,3H-Thymidine incorporation cpm,[7],19545 cpm
B1,Mean Onset,[1],11.7 days
same,Incidence of EAE,[1],6/10
same,% Blocking,[1],40%
same,Mean Score,[1],2.8
B2,Incidence of EAE,[1],0/10
same,% Blocking,[1],100%
same,Mean Score,[1],0
B3,% Cop 1 binding,[2],(9) %
same,Binding of mAb cpm,[2],2152 cpm
same,Mean Onset,[1],14.0 days
same,Incidence of EAE,[1],1/9
same,% Blocking,[1],89%
same,Mean Score,[1],0.2
same,% Cop 1 binding,[3],(37) %
same,Binding of mAb cpm,[3],4259 cpm
same,3H-Thymidine incorporation (% Cop 1),[4],(83) %
same,3H-Thymidine incorporation cpm,[4],2701 cpm
same,% Cop 1 binding,[5],(6) %
same,Binding of mAb cpm,[5],2265 cpm
same,3H-Thymidine incorporation (% Cop 1),L-22-1 T cell clone,(1) %
same,3H-Thymidine incorporation cpm,L-22-1 T cell clone,300 cpm
same,3H-Thymidine incorporation (% Cop 1),[6],(0) %
same,3H-Thymidine incorporation cpm,[6],327 cpm
same,3H-Thymidine incorporation (% Cop 1),[7],(52) %
same,3H-Thymidine incorporation cpm,[7],17367 cpm
B4,% Cop 1 binding,[2],(6) %
same,Binding of mAb cpm,[2],1606 cpm
same,Mean Onset,[1],12.0 days
same,Incidence of EAE,[1],3/10
same,% Blocking,[1],70%
same,Mean Score,[1],0.7
same,% Cop 1 binding,[3],(76) %
same,Binding of mAb cpm,[3],8140 cpm
same,3H-Thymidine incorporation (% Cop 1),[4],(65) %
same,3H-Thymidine incorporation cpm,[4],2284 cpm
same,% Cop 1 binding,[5],(2) %
same,Binding of mAb cpm,[5],1625 cpm
same,3H-Thymidine incorporation (% Cop 1),L-22-1 T cell clone,(1) %
same,3H-Thymidine incorporation cpm,L-22-1 T cell clone,418 cpm
same,3H-Thymidine incorporation (% Cop 1),[6],(0) %
same,3H-Thymidine incorporation cpm,[6],298 cpm
same,3H-Thymidine incorporation (% Cop 1),[7],(44) %
same,3H-Thymidine incorporation cpm,[7],14694 cpm
